Tests used:
Test in all cases: cell-based or functional assay
[1] = target: endogenous full-length hepsin on the surface of LnCaP-17 cells (human) (UniProt P05981)
[2] = target: full-length hepsin on the surface of LnCaP-34 cells (transfected full-length hepsin with C-terminal Flag tag plus endogenous hepsin) (human) (UniProt P05981)
[3] = target: pro-uPA (pro-urokinase-type plasminogen activator, single-chain zymogen form of uPA) (UniProt P00749)

Chain of full-length hepsin on the surface of LnCaP-34 cells (transfected full-length hepsin with C-terminal Flag tag plus endogenous hepsin) (human) (P05981 whole entry): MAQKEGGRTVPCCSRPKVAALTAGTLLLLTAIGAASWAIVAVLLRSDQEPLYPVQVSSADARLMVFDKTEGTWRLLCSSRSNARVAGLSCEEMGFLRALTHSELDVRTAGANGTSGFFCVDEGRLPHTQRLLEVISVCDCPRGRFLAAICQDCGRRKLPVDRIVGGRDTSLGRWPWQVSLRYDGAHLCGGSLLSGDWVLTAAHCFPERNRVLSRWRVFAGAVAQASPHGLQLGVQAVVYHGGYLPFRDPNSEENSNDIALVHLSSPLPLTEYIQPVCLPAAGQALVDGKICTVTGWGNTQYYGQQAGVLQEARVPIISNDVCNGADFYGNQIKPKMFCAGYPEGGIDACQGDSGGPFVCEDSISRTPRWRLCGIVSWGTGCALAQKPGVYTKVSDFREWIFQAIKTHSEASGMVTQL
Chain of endogenous full-length hepsin on the surface of LnCaP-17 cells (human) (P05981 whole entry): as above

## KD1, Kunitz domain-1 derived from HAI-1B (from UniProt O43278 246-303)
[1]
  Rate of pro-uPA activation per 10^6 cells, LnCaP-17, with 1 uM KD1: 0.2 nM uPA hr^-1
[2]
  Rate of pro-uPA activation per 10^6 cells, LnCaP-34, with 1 uM KD1: 0.2 nM uPA hr^-1

## endogenous full-length hepsin on the surface of LnCaP-17 cells (from UniProt P05981 1-417) (enzyme)
[3]
  Rate of pro-uPA activation per 10^6 cells, LnCaP-17, control: 2.4 nM uPA hr^-1

## full-length hepsin on the surface of LnCaP-34 cells (transfected full-length hepsin with C-terminal Flag tag plus endogenous hepsin) (from UniProt P05981 1-417) (enzyme)
[3]
  Rate of pro-uPA activation per 10^6 cells, LnCaP-34, control: 6.6 nM uPA hr^-1

Reference: patent publication US20100061996A1
